From patent US20090280138A1 (OXFORD BIOMEDICA UK, published 2009)

biological target: T1, MHC class I molecule B*0702 (biotin (bound to streptavidin-coated plate)); assay: iTopia peptide binding assay
T1 construct: iTopia monomer stripped of placeholder peptide and b2M, then reconstituted with test peptide and fresh b2M; also called B7; HLA-B7
In short: (§1)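 In this kit-based ELISA, nonamer peptides are scored in duplicate for binding to plate-bound MHC under standardized optimal conditions, alongside allele-specific positive controls. Peptides classed as binders proceed to dissociation and affinity experiments.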

| Binder | binding, % of positive control peptide |
| --- | --- |
| LDNNPWVCD [5T4 9-mer peptide 146 (LDNNPWVCD)] | 3 % of positive control |
| VQGKDRLTC [5T4 9-mer peptide 158 (VQGKDRLTC)] | 6 % of positive control |
| LNSADLDCD [5T4 9-mer peptide 169 (LNSADLDCD)] | 0 % of positive control |
| ADMVTWLKE [5T4 9-mer peptide 152 (ADMVTWLKE)] | 8 % of positive control |
| DNALKVLHN [5T4 9-mer peptide 134 (DNALKVLHN)] | 0 % of positive control |
| CAYPEKMRN [5T4 9-mer peptide 162 (CAYPEKMRN)] | 3 % of positive control |
| DCDPILPPS [5T4 9-mer peptide 172 (DCDPILPPS)] | 0 % of positive control |
| LTYVSFRNL [5T4 9-mer peptide 125 (LTYVSFRNL)] | 58 % of positive control |
| DLDCDPILP [5T4 9-mer peptide 171 (DLDCDPILP)] | 3 % of positive control |
| LTCAYPEKM [5T4 9-mer peptide 161 (LTCAYPEKM)] | 6 % of positive control |
| AELQGLPHI [5T4 9-mer peptide 140 (AELQGLPHI)] | 0 % of positive control |
| ETEVVQGKD [5T4 9-mer peptide 156 (ETEVVQGKD)] | 1 % of positive control |
| LHLEDNALK [5T4 9-mer peptide 132 (LHLEDNALK)] | 0 % of positive control |
| NGTLAELQG [5T4 9-mer peptide 138 (NGTLAELQG)] | 0 % of positive control |
| MRNRVLLEL [5T4 9-mer peptide 165 (MRNRVLLEL)] | 13 % of positive control |

biological target: T2, MHC class I molecule A*0301 (biotin (bound to streptavidin-coated plate)); assay: iTopia peptide binding assay
T2 construct: iTopia monomer stripped of placeholder peptide and b2M, then reconstituted with test peptide and fresh b2M; also called A3; HLA-A3
In short: as §1

| Binder | binding, % of positive control peptide |
| --- | --- |
| LDNNPWVCD [5T4 9-mer peptide 146 (LDNNPWVCD)] | 2 % of positive control |
| VQGKDRLTC [5T4 9-mer peptide 158 (VQGKDRLTC)] | 6 % of positive control |
| LNSADLDCD [5T4 9-mer peptide 169 (LNSADLDCD)] | 3 % of positive control |
| ADMVTWLKE [5T4 9-mer peptide 152 (ADMVTWLKE)] | 4 % of positive control |
| DNALKVLHN [5T4 9-mer peptide 134 (DNALKVLHN)] | 0 % of positive control |
| CAYPEKMRN [5T4 9-mer peptide 162 (CAYPEKMRN)] | 4 % of positive control |
| DCDPILPPS [5T4 9-mer peptide 172 (DCDPILPPS)] | 3 % of positive control |
| LTYVSFRNL [5T4 9-mer peptide 125 (LTYVSFRNL)] | 20 % of positive control |
| DLDCDPILP [5T4 9-mer peptide 171 (DLDCDPILP)] | 4 % of positive control |
| LTCAYPEKM [5T4 9-mer peptide 161 (LTCAYPEKM)] | 8 % of positive control |
| AELQGLPHI [5T4 9-mer peptide 140 (AELQGLPHI)] | 1 % of positive control |
| ETEVVQGKD [5T4 9-mer peptide 156 (ETEVVQGKD)] | 3 % of positive control |
| LHLEDNALK [5T4 9-mer peptide 132 (LHLEDNALK)] | 5 % of positive control |
| NGTLAELQG [5T4 9-mer peptide 138 (NGTLAELQG)] | 3 % of positive control |
| MRNRVLLEL [5T4 9-mer peptide 165 (MRNRVLLEL)] | 4 % of positive control |

biological target: T3, MHC class I molecule A*0101 (biotin (bound to streptavidin-coated plate)); assay: iTopia peptide binding assay
T3 construct: iTopia monomer stripped of placeholder peptide and b2M, then reconstituted with test peptide and fresh b2M; also called A1; HLA-A1
In short: as §1

| Binder | binding, % of positive control peptide |
| --- | --- |
| LDNNPWVCD [5T4 9-mer peptide 146 (LDNNPWVCD)] | 0 % of positive control |
| VQGKDRLTC [5T4 9-mer peptide 158 (VQGKDRLTC)] | 0 % of positive control |
| LNSADLDCD [5T4 9-mer peptide 169 (LNSADLDCD)] | 0 % of positive control |
| ADMVTWLKE [5T4 9-mer peptide 152 (ADMVTWLKE)] | 0 % of positive control |
| DNALKVLHN [5T4 9-mer peptide 134 (DNALKVLHN)] | 1 % of positive control |
| CAYPEKMRN [5T4 9-mer peptide 162 (CAYPEKMRN)] | 0 % of positive control |
| DCDPILPPS [5T4 9-mer peptide 172 (DCDPILPPS)] | 0 % of positive control |
| LTYVSFRNL [5T4 9-mer peptide 125 (LTYVSFRNL)] | 28 % of positive control |
| DLDCDPILP [5T4 9-mer peptide 171 (DLDCDPILP)] | 0 % of positive control |
| LTCAYPEKM [5T4 9-mer peptide 161 (LTCAYPEKM)] | 16 % of positive control |
| AELQGLPHI [5T4 9-mer peptide 140 (AELQGLPHI)] | 0 % of positive control |
| ETEVVQGKD [5T4 9-mer peptide 156 (ETEVVQGKD)] | 0 % of positive control |
| LHLEDNALK [5T4 9-mer peptide 132 (LHLEDNALK)] | 4 % of positive control |
| NGTLAELQG [5T4 9-mer peptide 138 (NGTLAELQG)] | 3 % of positive control |
| MRNRVLLEL [5T4 9-mer peptide 165 (MRNRVLLEL)] | 0 % of positive control |

biological target: T4, MHC class I molecule A*0201 (biotin (bound to streptavidin-coated plate)); assay: iTopia peptide binding assay
T4 construct: iTopia monomer stripped of placeholder peptide and b2M, then reconstituted with test peptide and fresh b2M; also called A2; HLA-A2
In short: as §1

| Binder | binding, % of positive control peptide |
| --- | --- |
| LDNNPWVCD [5T4 9-mer peptide 146 (LDNNPWVCD)] | 0 % of positive control |
| VQGKDRLTC [5T4 9-mer peptide 158 (VQGKDRLTC)] | 4 % of positive control |
| LNSADLDCD [5T4 9-mer peptide 169 (LNSADLDCD)] | 0 % of positive control |
| ADMVTWLKE [5T4 9-mer peptide 152 (ADMVTWLKE)] | 6 % of positive control |
| DNALKVLHN [5T4 9-mer peptide 134 (DNALKVLHN)] | 5 % of positive control |
| CAYPEKMRN [5T4 9-mer peptide 162 (CAYPEKMRN)] | 11 % of positive control |
| DCDPILPPS [5T4 9-mer peptide 172 (DCDPILPPS)] | 0 % of positive control |
| LTYVSFRNL [5T4 9-mer peptide 125 (LTYVSFRNL)] | 25 % of positive control |
| DLDCDPILP [5T4 9-mer peptide 171 (DLDCDPILP)] | 0 % of positive control |
| LTCAYPEKM [5T4 9-mer peptide 161 (LTCAYPEKM)] | 40 % of positive control |
| AELQGLPHI [5T4 9-mer peptide 140 (AELQGLPHI)] | 9 % of positive control |
| ETEVVQGKD [5T4 9-mer peptide 156 (ETEVVQGKD)] | 1 % of positive control |
| LHLEDNALK [5T4 9-mer peptide 132 (LHLEDNALK)] | 4 % of positive control |
| NGTLAELQG [5T4 9-mer peptide 138 (NGTLAELQG)] | 9 % of positive control |
| MRNRVLLEL [5T4 9-mer peptide 165 (MRNRVLLEL)] | 6 % of positive control |
